Experimental data published in paper PMC11584650, “An inhibitory segment within G-patch activators tunes Prp43-ATPase activity during ribosome assembly” (Nature Communications, 2024).

Substrate: Nc1ncnc2c1ncn2[C@@H]1O[C@H](COP(=O)(O)OP(=O)(O)OP(=O)(O)O)[C@@H](O)[C@H]1O
Assay: pyruvate kinase/lactate dehydrogenase coupled NADH assay, Michaelis-Menten fit
Format: biochemical, Saccharomyces cerevisiae
Conditions: no RNA, 20 mM MgCl2, 50 mM Hepes pH 7.5, 200 mM KCl, room temperature, ATP up to 2.5 mM
Description: pyruvate kinase/lactate dehydrogenase coupled NADH assay, Michaelis-Menten fit on Prp43 | We obtained kinetic parameters for the ATPase activities of Prp43, Prp43:Tma23^M and Ppr43:Pxr1^M complexes

B1: Prp43 (Saccharomyces cerevisiae S288C) (protein)
chain: MGSKRRFSSEHPDPVETSIPEQAAEIAEELSKQHPLPSEEPLVHHDAGEFKGLQRHHTSAEEAQKLEDGKINPFTGREFTPKYVDILKIRRELPVHAQRDEFLKLYQNNQIMVFVGETGSGKTTQIPQFVLFDEMPHLENTQVACTQPRRVAAMSVAQRVAEEMDVKLGEEVGYSIRFENKTSNKTILKYMTDGMLLREAMEDHDLSRYSCIILDEAHERTLATDILMGLLKQVVKRRPDLKIIIMSATLDAEKFQRYFNDAPLLAVPGRTYPVELYYTPEFQRDYLDSAIRTVLQIHATEEAGDILLFLTGEDEIEDAVRKISLEGDQLVREEGCGPLSVYPLYGSLPPHQQQRIFEPAPESHNGRPGRKVVISTNIAETSLTIDGIVYVVDPGFSKQKVYNPRIRVESLLVSPISKASAQQRAGRAGRTRPGKCFRLYTEEAFQKELIEQSYPEILRSNLSSTVLELKKLGIDDLVHFDFMDPPAPETMMRALEELNYLACLDDEGNLTPLGRLASQFPLDPMLAVMLIGSFEFQCSQEILTIVAMLSVPNVFIRPTKDKKRADDAKNIFAHPDGDHITLLNVYHAFKSDEAYEYGIHKWCRDHYLNYRSLSAADNIRSQLERLMNRYNLELNTTDYESPKYFDNIRKALASGFFMQVAKKRSGAKGYITVKDNQDVLIHPSTVLGHDAEWVIYNEFVLTSKNYIRTVTSVRPEWLIEIAPAYYDLSNFQKGDVKLSLERIKEKVDRLNELKQGKNKKKSKHSKK
notes: full-length His6-tagged Prp43, expressed in E. coli BL21(DE3)*, Ni-NTA and size exclusion
Q: For B1, which Km is on record?
A: 19.04 ± 7.11 µM

Q: And the kcat?
A: 0.0318 ± 0.0005 s⁻¹
